In US20250243263A1 (VOYAGER THERAPEUTICS, published 2025):
Where no end group is shown, it is not given here. [ ]: non-standard residue; d: D form. pT = C[C@@H](OP(=O)(O)O)[C@H](N)C(=O)O; pS = N[C@@H](COP(=O)(O)O)C(=O)O

T1: AT8 peptide (amino acids 195-215 of tau) (human, phospho-peptide, phosphorylated sites not stated in the example; immobilized on streptavidin tips)
T1 peptide: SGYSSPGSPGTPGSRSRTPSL

T2: AC04 peptide (human, phosphothreonine at T212 and T217 of tau (peptide positions 4, 9))
T2 construct: Tau-derived peptide with an N-terminal Cys
T2 peptide: CSRTPSLPTPPTREPK

T3: wtTau C2 (human)
T3 peptide: PTREPKKVA

T4: tPeptide 5 (204-222) (human)
T4 peptide: GTPGSRSR[pT]P[pS]LP[pT]PPTRE

T5: AT270 peptide (pT181; Tau172-186) (human)
T5 peptide: PAKTPPAPK[pT]PPSSG


How the values were obtained:
[1] = biological target: T6, Tau191-214 phospho-peptide (pS199) (human, phosphoserine at S199 of tau (peptide position 9); SCBio-4PEG label); experiment: one point ELISA
T6 construct: also called pS199 peptide
T6 sequence (peptide, as listed by the source): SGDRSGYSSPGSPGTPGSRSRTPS
Description: (§1) One-point ELISA was used to determine differential binding based on the individual phosphorylation patterns of each peptide. OD values (450 nm) were collected (as shown in Table 13), where a stronger positive signal is shown as a higher OD value, which is indicative of increased binding.

[2] = biological target: T7, pS199-old (SCBio-4PEG-Peptide, Tau191-214) (human, phosphoserine at S199 of tau by the row label; SCBio-4PEG label); experiment: one point ELISA
T7 construct: The suffix -old is not explained
Description: as §1

[3] = biological target: T8, enriched paired helical filament tau protein (ePHF; sarkosyl insoluble tau) (human, UniProt P10636 2-758); experiment: direct ELISA, ePHF coated
T8 sequence (P10636 other isoform, or with tags, fused parts or gaps limits assumed): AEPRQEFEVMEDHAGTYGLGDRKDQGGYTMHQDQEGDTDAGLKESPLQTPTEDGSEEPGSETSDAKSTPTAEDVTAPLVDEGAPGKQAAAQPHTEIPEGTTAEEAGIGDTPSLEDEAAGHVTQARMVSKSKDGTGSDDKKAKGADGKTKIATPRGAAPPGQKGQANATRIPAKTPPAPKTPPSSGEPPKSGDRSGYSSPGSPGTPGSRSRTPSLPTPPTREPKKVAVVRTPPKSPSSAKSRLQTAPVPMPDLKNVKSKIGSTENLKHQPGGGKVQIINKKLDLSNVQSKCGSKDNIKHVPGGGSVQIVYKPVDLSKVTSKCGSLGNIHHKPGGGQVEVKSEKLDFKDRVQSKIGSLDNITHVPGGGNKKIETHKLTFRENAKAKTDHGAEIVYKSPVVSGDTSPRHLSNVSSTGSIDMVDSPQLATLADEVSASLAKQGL
Procedure: (§2) A set of recombinant human IgG1 antibodies were prepared with clone-specific variable domain pairs selected from those presented in Table 1 and human IgG1 constant domains. These candidate antibodies were analyzed for binding to ePHF and specificity for ePHF over wild type tau by direct ELISA.
(§3) For direct ePHF and wildtype tau ELISA, plates were first coated with ePHF or wild type tau. Antigen solutions were prepared in PBS and 50 μL were pipetted into each well. Plates were covered and incubated for one hour at 37° C. or overnight at 4° C. Plates were then washed and blocked by addition of 150 μl of blocking buffer to each well and incubated one hour at room temperature. Plates were then washed before addition of serially diluted candidate antibody samples prepared in blocking buffer. Detection of candidate antibody binding was carried out by washing plates and adding a solution of enzyme-labeled secondary antibody in blocking buffer to each well. Secondary antibody binding was detected by addition of substrate and spectrophotometric analysis of resulting reaction product.

[4] = biological target: T8, enriched paired helical filament tau …; experiment: follow up selectivity analysis, ePHF over wild-type tau; method not stated
[5] = biological target: T8, enriched paired helical filament tau …; experiment: cell-based or functional assay
iPHF [6] = biological target: T9, iPHF (UniProt P10636-8 2-441, limits assumed); experiment: BLI (Octet), antibody on biosensor tip, iPHF in solution
T9 construct: also called iPHF tau
T9 sequence (P10636 other isoform, or with tags, fused parts or gaps limits assumed): as above
Procedure: Anti-human tau antibodies were assessed for affinity for iPHF by Octet (ForteBio, Menlo Park, CA) analysis. A set of recombinant human IgG1 antibodies were prepared with clone-specific variable domain pairs selected from those presented in Table 1 and human IgG1 constant domains. Candidate antibodies were immobilized on biosensor tips (ForteBio) in kinetic buffer (ForteBio). Biosensor tips were then washed before introduction of a solution of iPHF in kinetic buffer for analysis of association and dissociation with candidate antibodies.

[7] = biological target: T1, AT8 peptide (amino acids 195-215 of tau); experiment: BLI (Octet), phospho-peptide on streptavidin tips
Procedure: Briefly, phospho-peptides were immobilized on streptavidin biosensor tips and the binding ability of each antibody was assessed using an eight-point concentration gradient.

iPHF [8] = biological target: T9, iPHF; experiment: SPR (Biacore 8K)
iPHF [9] = biological target: T9, iPHF; experiment: follow up selectivity analysis, iPHF over wild-type tau; method not stated
wild type tau = biological target: T10, wild type tau (human, UniProt P10636 2-758); experiment: direct ELISA, wild type tau coated
T10 construct: also called WT
T10 sequence (P10636 other isoform, or with tags, fused parts or gaps limits assumed): as above
Procedure: as §2, §3

AC04 peptide = biological target: T2, AC04 peptide; experiment: one point ELISA
Description: as §1

wtTau C2 = biological target: T3, wtTau C2; experiment: one point ELISA
Description: as §1

tPeptide 5 (204-222) = biological target: T4, tPeptide 5 (204-222); experiment: one point ELISA
Description: as §1

[10] = biological target: Tau191-214 phospho-peptide (pT205) (human, phosphothreonine at T205 of tau (peptide position 15); SCBio-4PEG label); experiment: one point ELISA
Description: as §1

[11] = biological target: Tau191-214 phospho-peptide (pS202) (human, phosphoserine at S202 of tau (peptide position 12); SCBio-4PEG label); experiment: one point ELISA
Description: as §1

[12] = biological target: T5, AT270 peptide (pT181; Tau172-186); experiment: one point ELISA

Binder | EC50 [3] | selectivity ePHF:WT [4] | Average IC50 (nM) for inhibiting tau aggregation after immunodepletion of ePHF (tau RD Biosensor cells) [5] | Kd (iPHF [6]) | Kd [7] | Kd (iPHF [8]) | selectivity iPHF:WT (iPHF [9]) | also measured
VY007 (antibody, V domains shown) VH: EVQLVESGGGLVQPGGSLRLSCAASRFTFSNYNMNWVRQAPGKGLEWISYISSSSSTIYYADSVKGRFTISRDNAKNSLSLQMNSLRDEDTAVYYCASLGRGYWGQGTLVTVSS VL: not shown | 180 pM | > 23 fold | 36.3 nM | 600 pM | 18.2 pM | 596 pM | > 109 fold | OD (450 nm) [1]: 0.057 OD450; OD (450 nm) [2]: 0.057 OD450
VY001 (antibody, V domains shown) VH: EVQLVESGGGLVQPGGSLRLSCAASGFTFSSYNMNWVRQAPGKGLEWISYISSSSNTIYYADSVKGRFTVSRDNAKNSLYLQMNSLRDEDTAVYYCATLGRGYWGQGTLVIASS VL: not shown | 20 pM | > 181 fold | 12.5 nM | 7700 pM | 4.35 pM | 293 pM | > 30 fold | OD (450 nm) [1]: 0.059 OD450; OD (450 nm) [2]: 0.059 OD450
VY016 (antibody, V domains shown) VH: EVQLVESGGGLVQPGGSLRLSCAASGFTFSSYSMNWVRQAPGKGLEWVSYISRSGSTIYYADSVEGRFTISRDNAYNSLYLQMISLRDDDTAVYYCARGNWAYWGQGILVTVSS VL: QSVLTQPPSVSGAPGQRVTISCTGSSSNIGAGYDVHWYQQLPGTAPKLLIYGNSNRPSGVPDRFSGSKSGTSASLAITGLQAEDETDFYCQSYDSSLSGSVFGGGTKLTVL |  |  |  |  |  |  |  | binding result (wild type tau): no binding; binding result [3]: no binding
VY004 (antibody, V domains shown) VH: EVQLVESGGGLVQAGGSLRLSCAASGFTFSDYSMNWVRQAPGKGLEWVSYIRSSSSIIYYADSVKGRFTISRDNAKNSLHLQMNSLRDEDTAVYYCARRGHFDYWGQGTLVTVSS VL: EIVLTQSPATLSLSPGERATLSCRASQSVSDYLAWYQQKPGQAPRLFIYDVSKRATGIPARFSGSGSGTDFTLTISSLEPEDFAVYYCQQRSNWPLTFGGGTKVEIK | 70 pM | > 59 fold | 9.39 nM | 3700 pM |  | 11600 pM | > 382 fold | OD (450 nm) (AC04 peptide): 2.85 OD450; OD (450 nm) (wtTau C2): 0.169 OD450; OD (450 nm) (tPeptide 5 (204-222)): 0.382 OD450
VY017 (antibody, V domains shown) VH: EVQLVESGGGLVQPGGSLRLSCAASGFTFSSYSMNWVRQAPGKGLEWVSYIRSSSSTIYYADSVKGRFTISRDNAKKSLYLQMNSLRDEDTAVYYCARRSIADYWGQGTLVTVSS VL: EIVLTQSPATLSSSPGERATLSCRASQSVTSYLNWYQQKPGQAPRLLIYDASNRATGIPARFSGSGSGTDFTLTISSLEPEDFALYYCQQRSNWPYTFGQGTKLEIK |  |  |  | 3700 pM |  |  |  | 
VY012 (antibody, V domains shown) VH: EVQLLESGGGLVQPGGSLRLSCAASGFTYSSYAMSWVRRAPGKGLEWISIISGSSSITYYADSMKGRFTISRDNSKNTLFLQMNSLRAEDTAVYYCAKGGRYGYFQHWGQGTLVTVSS VL: SYVLTQPPSVSVAPGQTARITCGGNNIGSKSVHWYQQKPGQAPVLVVYDDSDRPSGIPERFSGSNSGNTATLTISRVEAGDEADYYCQVWDSSSDPVVFGGGTMLTVL | 40 pM |  |  | 5100 pM |  |  |  | EC50 (wild type tau): 10 pM
VY013 (antibody, V domains shown) VH: QVTLKESGPVLVKPTETLTLTCTVSGFSLINARMAVSWIRQPPGKALEWLAHIFSNDEKSYSTSLKSRLTISKDTSKSQVVLIMTNMDPVDTATYYCARIRGYSYNYGMDVWGQGTTVTVSS VL: DIVMTQSPLSLPVIPGEPASISCRSSQSLLHSNGYIYLDWYLQKPGQSPQLLIYVGSNRASGVPDRFSGSGSGTDFKLKISRVEAEDVGVYYCMQTLQIPRTFGGGTKVEIK | 60 pM |  |  | 2900 pM |  |  |  | EC50 (wild type tau): 980 pM
VY018 (antibody, V domains shown) VH: QVQLQESGPGLVKPSETLSLTCTVSGGSISNYYWSWIRQPAGKGLEWIGRIYTSGDTYYNPSLQSRVTMSVDTSKNQFSLKLSAVTAADTAVYYCARAGIVGTPGLGMDVWGQGTTVTVSS VL: SYELTQPPSVSVSPGQTARITCSGEALPKQYAYWYQQKPGQAPVLVIYKDSERPSGIPERFSGSSSGTTVTLTISGVQAEDEADYYCQSADSSGTYRVFGGGTKLTVL |  |  |  | 3000 pM |  |  | > 73 fold | 
VY006 (antibody, V domains shown) VH: EVQLVESGGGLVQPGGSLRLSCAASGFTFSSYTMNWVRQAPGKGLEWVSYISSSSSTIYYADSVKGRFTISRDNAKNSLYLQMNSLRDEDTAVYYCASLGRGDCWGQGTLVTVSS VL: not shown | 110 pM | > 40 fold | 8.3 nM | 1500 pM | 3.82 pM | 356 pM | > 145 fold | OD (450 nm) [1]: 0.054 OD450; OD (450 nm) [2]: 0.063 OD450
VY005 (antibody, V domains shown) VH: EVQLVESGGGLVQPGGSLRLSCAASGFTFSSYSMNWVRQAPGKGLEWISYISSSNSTIKYADSVKGRFTISRDNAKNSLYLQMNSLRDEDTAVYYCARRSLGDYWGQGTLVIVSS VL: DIQLTQSPSFLSASVGDRVTITCRASQGISCSLAWYQQKPGKAPKLLIYAASTLQSGVPSRFSGSGSGTEFTLTISSLQPEDFATYYCQQFNSYPFTFGPGTKVDIK | 70 pM |  |  | 1000 pM |  |  |  | OD (450 nm) (AC04 peptide): 2.83 OD450; OD (450 nm) (wtTau C2): 0.153 OD450; OD (450 nm) (tPeptide 5 (204-222)): 0.288 OD450
VY011 (antibody, V domains shown, also called VY0I1; VY0111 (misprints in the text)) VH: QVQLQESGPGLVKPSETLSLTCTVSGGSISNYYWTWIRQPAGKGLEWIGRVYTSGSANYNPSLKSRVTMSVDTSKNQFSLTLSSVTAADTAVYYCARDRGLYYWGQGTLVTVSS VL: DIVMTQTPLSSLVTLGQPASISCRSSQSLVHSDGNTYLSWLQQRPGQPPRLLIYKISKRFFGVPDRFSGSGAGTDFTLKINRVEAEDVGIYYCMQATQFPLTFGGGTKVEIK | 30 pM | > 137 fold | 18.1 nM | 2000 pM | 8.9 pM | 238 pM | > 108 fold | OD (450 nm) [10]: 0.06 OD450; OD (450 nm) [11]: 0.06 OD450; binding result [12]: no binding
VY009 (antibody, V domains shown) VH: QITLKESGPTLVKPTQTLTLTCTLSGFSLSTSEVGVGWIRQPPGKALEWLAIIYWNDHKRYSPSLKNRLTFTKDTSKNQVVLTMTNMDPVDTATYYCARRVTGEGFDPWGQGTLVTVSS VL: SYELTQPPSVSVSPGQTARITCSGDALPKQYAYWYQQKPGQAPVLVIFKDTERPSGIPERFSGSSSGTTVTLTISGVQAEDEADYYCQSADSSGSYVFGTGTKVTVL | 1740 pM |  |  | 1100 pM |  |  |  | 
VY019 (antibody, V domains shown) VH: QVQLQESGPGLVKPSETLSLTCTVSGGSISSYYWTWIRQPAGKGLEWIGRIDTSGSTNYNPSLKSRVTMSIDTSKKQFSLKLSSVTAADTAVYYCARGGDGYRYWGQGTLVTVSS VL: SYELTQPPSVSVSPGQTARITCSGDALPKQYACWYQQKPGQAPVLVIYKDSERPSGIPERFSGSSSGTTVTLTITGVQAEDEADYYCQSTDSSGSWVFGGGTKLTVL |  |  |  |  |  |  |  | binding result (wild type tau): no binding; binding result [3]: no binding
